Experiments:
[1] = system: DCs; assay: Extracellular acidification rate (ECAR), Seahorse XFe24 flux analysis of DCs; type: cell-based, Murine
Experimental: Dendritic Cell Conditioning: DCs were treated with Wnt3a (100 ng/mL), Wnt5a (200 ng/mL), LPS (1 μg/mL), 1-MT (1 mM), 2DG (1 mM), or ETO (100 μM), 2-DG(2-deoxy-d-glucose, 1 mM), Oligomycin (1 μM), succinylacetone (250 μM), or vehicle control either for 24 or 48 hrs prior to their use in both in vitro and in vivo experiments.
Cellular Energy Metabolism Analysis: DC energy metabolism was measured using the XFe24 extracellular flux analyzer (Seahorse Bioscience), with the glycolysis stress test kit and the mitochondrial stress test kit as previously described (Everts et al., 2014, Zhao and Klimecki, 2015). For experiments involving LPS injection, DCs were plated in XFe24 plates (200,000/well in 500p1) and treated with LPS for 48 hours prior to XF analysis. DCs were washed and analyzed in XF media (RPMI without sodium bicarbonate, 10 mM glucose, 1% FBS, 2 mM L-glutamine). ECAR was analyzed in real-time with or without LPS stimulation. For experiments involving BrafV600EPten−/− cell line-derived conditioned media (CM), collected CM was concentrated and desalted with an Amicon Ultra 30K filter according to manufacturer's recommendations (Milipore). Final concentrate was further washed with XF media 3 times, added to DCs immediately prior to OCR analysis. For standard ECAR analysis, XF media (without glucose) was used to wash cells prior to the assay. A final concentration of 10 mM glucose, 1 μM oligomycin, 50 mM 2-DG(sigma) were injected through XFe24 port A-C. For standard OCR analysis, XF media (with 10 mM glucose) was used to wash cells, a final concentration of 1 μM oligomycin, 1.5 μM FCCP (fluoro-carbonyl cyanide phenylhydrazone), 100 nM rotenone, and 1 μM of antimycin-A (Sigma) were injected through XFe24 port A-C.

[2] = system: BRAF^V600EPTEN^−/− melanoma cell line; assay: Qrt-PCR of chemokines in melanoma cell line after rWnt5a; type: cell-based; conditions: vs vehicle ctrl
Description: (A) TCGA melanoma database gene expression association analysis of CXCL5, CXCL2, and CXCR2 with WNT5A. (B) Whole tumor tissue Western blot analysis of Wnt5a, nuclear Yap-1, CXCL5 and β-actin (loading control). Representative blot shown (n=3). (C) Plasma CXCL5 ELISA following anti-PD-1 ab therapy vs IgG isotype ctrl therapy in the transgenic BRAF^V600EPTEN^−/− melanoma model (n=5). bottom, plasma CXCL5 dot blot following anti-PD-1 ab therapy vs IgG isotype ctrl therapy in the transgenic BRAF^V600EPTEN^−/− melanoma model. Representative of 3 independent experiments. pseudo-red reflective of density. (D) Qrt-PCR analysis of Cxcl5, Cxcl2, and Cxcl1 in the BRAF^V600EPTEN^−/− melanoma cell line following treatment with recombinant Wnt5a (rWnt5a) vs vehicle ctrl (n=3). (E) Western blot analysis of Yap-1 expression in total cellular lysates (top) and nuclear lysates (middle) following treatment of BRAF^V600EPTEN^−/− melanoma cells with rWnt5a at various time points. β-actin, total lysate loading ctrl. […], nuclear lysate loading ctrl. (bottom) rWnt5a induction of CXCL5 in the absence and presence of verteporfin (YAP inhibitor) or XAV939 (β-catenin inhibitor). All representative of 3 independent experiments. […]

[3] = system: BMDCs; assay: Metabolomics LC-MS of TCA intermediates; type: cell-based, Murine; conditions: rWnt5a stimulation
Experimental: Metabolomics: Metabolites were extracted from 5×106 BMDCs and subjected to LC-MS analysis according to a previously published protocol (Liu et al., 2014a, Liu et al., 2014b). Metabolites were extracted from 5×106 BMDCs from each experimental group (3 mice per group), washed with ice cold PBS, and lysed in 80% (v/v) methanol on dry ice. Cell lysates were frozen at −80° C. for 15 minutes to disrupt cell membrane and quench enzymatic activity. Samples were then thawed on ice, vortexed rigorously to extract metabolites, and then centrifuged at 20,000 g at 4° C. to precipitate proteins and cell debris. Metabolite extracts were then dried using a speed vacuum and subjected to LC-MS analysis (Liu et al., 2014a, Liu et al., 2014b). Data collected from LC-Q exactive MS is processed on Sieve 2.0 (Thermo). For metabolite analysis, theoretical m/z and retention time of 263 known metabolites were used for positive mode, and 197 metabolites were used for negative mode. Data containing detected m/z and relative intensity of different samples were obtained.

B1: Wnt5a: Recombinant Human/Mouse Wnt5a Protein (R&D Systems) (protein, UniProt P41221 62-380, looked up)
Protein Wnt-5a: IIGAQPLCSQLAGLSQGQKKLCHLYQDHMQYIGEGAKTGIKECQYQFRHRRWNCSTVDNTSVFGRVMQIGSRETAFTYAVSAAGVVNAMSRACREGELSTCGCSRAARPKDLPRDWLWGGCGDNIDYGYRFAKEFVDARERERIHAKGSYESARILMNLHNNEAGRRTVYNLADVACKCHGVSGSCSLKTCWLQLADFRKVGDALKEKYDSAAAMRLNSRGKLVQVNSRFNSPTTQDLVYIDPSPDYCVRNESTGSLGTQGRLCNKTSEGMDGCELMCCGRGYDQFKTVQTERCHCKFHWCCYVKCKKCTEIVDQFVCK
LPS-induced glycolytic surge (ECAR) ([1]; DCs pre-treated): suppressed the lipopolysaccharide (LPS)-induced glycolytic surge | glycolysis (ECAR) acutely after stimulation ([1]; within 90 min of stimulation): failed to impact glycolysis | expression of Cxcl5, Cxcl2 and Cxcl1 [2]: increased expression of Cxcl5, Cxcl2, and Cxcl1 | TCA intermediate metabolites [3]: increased quantities of many TCA intermediates but a decrease in α-ketoglutarate

Reference: patent publication US11643691B2, “Predictive biomarkers for cancer immunotherapy and methods of using same” (Duke University, priority 2018, dated 2023)
